B1: 4BRA (Cry4Ba with R203 mutated to A, trypsin-activated toxin) (protein)
chain: AINSSSVSTALKVAGAILKFVNPPAGTVLTVLSAVLPILWPTNTPTPERVWNDFMTNTGNLIDQTVTAYVRTDANAKMTVVKDYLDQYTTKFNTWKREPNNQSYRTAVITQFNLTSAKLRETAVYFSNLVGYELLLLPIYAQVANFNLLLIRDGLINAQEWSLAASAGDQLYNTMVQYTKEYIAHSITWYNKGLDVLRNKSNGQWITFNDYKREMTIQVLDILALFASYDPRRYPADKIDNTKLSKTEFTREIYTALVESPSSKSIAALEAALTRDVHLFTWLKRVDFWTNTIYQDLRFLSANKIGFSYTNSSAMQESGIYGSSGFGSNLTHQIQLNSNVYKTSITDTSSPSNRVTKMDFYKIDGTLASYNSNITPTPEGLRTTFFGFSTNENTPNQPTVNDYTHILSYIKTDVIDYNSNRVSFAWTHKIVDPNNQIYTDAITQVPAVKSNFLNATAKVIKGPGHTGGDLVALTSNGTLSGRMEIQCKTSIFNDPTRSYGLRIRYAANSPIVLNVSYVLQGVSRGTTISTESTFSRPNNIIPTDLKYEEFRYKDPFDAIVPMRLSSNQLITIAIQPLNMTSNNQVIIDRIEIIPITQSVLDET
modifications: 125I-iodinated (iodo-bead, sites not stated) where used as labelled toxin
B2: 4BL3PAT (4BRA with D454 replaced with P and AT inserted after position 454, loop 3 of domain II) (protein)
chain: AINSSSVSTALKVAGAILKFVNPPAGTVLTVLSAVLPILWPTNTPTPERVWNDFMTNTGNLIDQTVTAYVRTDANAKMTVVKDYLDQYTTKFNTWKREPNNQSYRTAVITQFNLTSAKLRETAVYFSNLVGYELLLLPIYAQVANFNLLLIRDGLINAQEWSLAASAGDQLYNTMVQYTKEYIAHSITWYNKGLDVLRNKSNGQWITFNDYKREMTIQVLDILALFASYDPRRYPADKIDNTKLSKTEFTREIYTALVESPSSKSIAALEAALTRDVHLFTWLKRVDFWTNTIYQDLRFLSANKIGFSYTNSSAMQESGIYGSSGFGSNLTHQIQLNSNVYKTSITDTSSPSNRVTKMDFYKIDGTLASYNSNITPTPEGLRTTFFGFSTNENTPNQPTVNDYTHILSYIKTDVIPATYNSNRVSFAWTHKIVDPNNQIYTDAITQVPAVKSNFLNATAKVIKGPGHTGGDLVALTSNGTLSGRMEIQCKTSIFNDPTRSYGLRIRYAANSPIVLNVSYVLQGVSRGTTISTESTFSRPNNIIPTDLKYEEFRYKDPFDAIVPMRLSSNQLITIAIQPLNMTSNNQVIIDRIEIIPITQSVLDET
modifications: 125I-iodinated (iodo-bead, sites not stated) where used as labelled toxin

Tests used:
[1] = biological target: Ae. aegypti BBMV (brush border membrane vesicles of Aedes aegypti larvae; toxin receptors on them not identified) (Aedes aegypti); experiment: saturation binding of 125I-toxin to BBMV, Hill fit
[2] = biological target: An. quadrimaculatus BBMV (brush border membrane vesicles of Anopheles quadrimaculatus larvae; toxin receptors on them not identified) (Anopheles quadrimaculatus); experiment: saturation binding of 125I-toxin to BBMV, Hill fit
[3] = biological target: Cx. quinquefasciatus BBMV (brush border membrane vesicles of Culex quinquefasciatus larvae; toxin receptors on them not identified) (Culex quinquefasciatus); experiment: saturation binding of 125I-toxin to BBMV, Hill fit
[4] = biological target: Cx. quinquefasciatus BBMV (brush border membrane vesicles of Culex quinquefasciatus larvae; toxin receptors on them not identified) (Culex quinquefasciatus); experiment: saturation binding of 125I-toxin to BBMV, Hill fit (repeats Table 3); parameters: Bmax: unit not given here
[5] = biological target: Cx. quinquefasciatus BBMV (brush border membrane vesicles of Culex quinquefasciatus larvae; toxin receptors on them not identified) (Culex quinquefasciatus); experiment: saturation binding of 125I-toxin to BBMV, Hill fit; parameters: Bmax: unit not given here

Binder | Bmax [1] | K′D (composite dissociation constant) [1] | Bmax [2] | K′D (composite dissociation constant) [2] | Bmax [3] | K′D (composite dissociation constant) [3] | Bmax [4] | K′D (composite dissociation constant) [4] | Bmax [5] | K′D (composite dissociation constant) [5]
B1 | 17.2 fmol/µg | 0.5 nM | 35.2 fmol/µg | 3.1 nM | 13.1 fmol/µg | 6.9 nM | 13.1 | 6.9 nM | – | –
B2 | – | – | – | – | – | – | – | – | 9.3 | 0.9 nM

Reference: patent publication US20050124803A1
